Experimental data reported in patent publication US4978608.
Read-outs that look alike come from different tables or passages of the source.

Key:
[1] = test system: single-stranded DNA binding protein (SSB, BP), immobilized (Escherichia coli); conditions: BP 50 ug/ml adsorbed on nitrocellulose, BSA blocked; sample in 10 mg/ml BSA
[2] = test system: single-stranded DNA binding protein (SSB, BP), immobilized (Escherichia coli); conditions: BP 0.2 mg/ml on Immobilon membrane; 10-1000 pg DNA in 10 mg/ml BSA; 80% captured with BP at 1 mg/ml

Substance: 32P-labeled single-stranded DNA
- binding signal [1]: 36 % captured
- binding signal [2]: 70 % captured
